Here are results for 2 substances from article PMC7066465.

Test [1] addresses native allophycocyanin of Agarophyton chilensis, αβ unit (Agarophyton chilensis). Briefly: SEC; Superdex 200 HiLoad 16/60; oligomer size estimated from a calibration curve of MW standards 1,750-670,000 Da (Bio-Rad gel filtration standard); oligomer of αβ units.
Test [2] addresses recombinant allophycocyanin of Agarophyton chilensis, αβ unit (Agarophyton chilensis). The test is described as above.

A word on the stoichiometry N: it is a count of units in the complex or per binding partner. On to “native allophycocyanin of Agarophyton chilensis, αβ unit (complex)”, for which the stoichiometry N in test [1] is 3.
“recombinant allophycocyanin of Agarophyton chilensis, αβ unit (complex)”: the stoichiometry N in test [2] is 3.
